± gives the uncertainty stated by the source.
Assay: self-splicing fitness, log relative to wild type (ln ratio); higher = more splicing; Tetrahymena group I intron in knt gene, E. coli kanamycin selection, DiMSum; sequences stand for … in CUCUCU…GGAGGGAAAAGUUAUCAGGCAUGCACCUGGUAGCUAGUCUUUAAACCAAUAGAUUGCAUCGGUUUAAAAGGCAAGACCGUCAAAUUGCGGGAAAGGGGUCAACAGCCGUUCAGUACCAAGUCUCAGGGGAAACUUUGAGAUGGCCUUGCAAAGGGUAUGGUAAUAAGCUGACGGACAUGGUCCUAACCACGCAGCCAAGUCCUAAGUCAACAGAUCUUCUGUUGAUAUGGAUGCAGUUCACAGACUAAAUGUCGGUCGGGGAAGAUGUAUUCUUCUCAUAAGAUAUAGUCGGACCUCUCCUUAAUGGGAGCUAGCGGAUGAAGUGAUGCAACACUGGAGCCGCUGGGAACUAAUUUGUAUGCGAAAGUAUAUUGAUUAGUUUUGGAGUACUCGUGGUCG
Method in brief: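 Colonies from six replicate transformations of E. coli BL21(DE3) were pooled and amplicon-sequenced on an Illumina HiSeq 2500. The library placed an intron with all eight P1ex-region nucleotides randomised inside the knt kanamycin-resistance gene on pET-22b(+), and cells grew overnight at 37°C or 30°C on LB agar with or without 25 μg/mL kanamycin (plus 100 μg/mL carbenicillin, 50 μM IPTG, 0.2% rhamnose). Fitness is the DiMSum error-weighted combination of wild-type-normalised replicate fold changes, kanamycin versus none.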

Sequence | self-splicing fitness (ln) (30 °C) | self-splicing fitness (ln) (37 °C)
GGCCAGCAAUAUUACGAGAG | -3.27 ± 0.24 | -2.52 ± 0.25
GGCCAGCAAUAUUACGCCGG | -3.21 ± 0.17 | -1.99 ± 0.23
GGCCAGCAAUAUUACGCGAG | – | -2.98 ± 0.35
GGCCAGCAAUAUUACGCUCU | -0.639 ± 0.12 | -0.0247 ± 0.17
GGCCAGCAAUAUUACGCUUG | -4.13 ± 0.26 | -2.58 ± 0.2
GGCCAGCAAUAUUACGGAAU | -0.615 ± 0.057 | -0.0748 ± 0.068
GGCCAGCAAUAUUACGGGCA | -1.06 ± 0.07 | -0.314 ± 0.079
GGCCAGCAAUAUUACGGGUA | -0.772 ± 0.064 | -0.783 ± 0.071
GGCCAGCAAUAUUACGGUAG | -0.883 ± 0.063 | 0.303 ± 0.083
GGCCAGCAAUAUUACGGUCG | -1.2 ± 0.14 | 0.113 ± 0.14
GGCCAGCAAUAUUACGUAGU | -2.25 ± 0.12 | -2.13 ± 0.12
GGCCAGCAAUAUUACGUCCA | -1.61 ± 0.17 | -0.128 ± 0.15
GGCCAGCAAUAUUACGUCGG | -3.69 ± 0.26 | -1.9 ± 0.24
GGCCAGCAAUAUUACGUGAA | -1.67 ± 0.066 | -0.271 ± 0.077
GGCCAGCAAUAUUACGUGUG | -1.15 ± 0.051 | -0.323 ± 0.066
GGCCAGCAAUAUUACGUUCC | -1.28 ± 0.14 | 0.125 ± 0.18
GGCGAGCAAUAUUACGAACU | -1.3 ± 0.16 | 0.292 ± 0.18
GGCGAGCAAUAUUACGAAGG | -3.8 ± 0.27 | -2.88 ± 0.4
GGCGAGCAAUAUUACGAGGC | -3.5 ± 0.23 | -3.02 ± 0.27
GGCGAGCAAUAUUACGAUUC | -0.495 ± 0.1 | 0.463 ± 0.14
GGCGAGCAAUAUUACGCAAG | -2.96 ± 0.34 | -2.3 ± 0.24
GGCGAGCAAUAUUACGCCAA | – | -2.45 ± 0.49
GGCGAGCAAUAUUACGCCGU | -3.44 ± 0.47 | -1.28 ± 0.45
GGCGAGCAAUAUUACGCCUA | – | -1.76 ± 0.23
GGCGAGCAAUAUUACGCUGG | -1.39 ± 0.36 | –

Sequence | self-splicing fitness (ln) (30 °C) | self-splicing fitness (ln) (37 °C)
GGCGAGCAAUAUUACGCUGU | -2.63 ± 0.22 | -2.66 ± 0.27
GGCGAGCAAUAUUACGGAUU | -1.21 ± 0.17 | -1.06 ± 0.24
GGCGAGCAAUAUUACGGCAA | -0.896 ± 0.19 | -0.442 ± 0.2
GGCGAGCAAUAUUACGGGGA | -2.39 ± 0.2 | -2.29 ± 0.29
GGCGAGCAAUAUUACGGGGC | -3.65 ± 0.29 | -2.96 ± 0.34
GGCGAGCAAUAUUACGGUAA | -2.66 ± 0.16 | -1.77 ± 0.2
GGCGAGCAAUAUUACGGUAC | -2.08 ± 0.17 | -1.98 ± 0.19
GGCGAGCAAUAUUACGUAGA | -2.07 ± 0.093 | -1.27 ± 0.12
GGCGAGCAAUAUUACGUCAA | -3.73 ± 0.34 | -1.71 ± 0.15
GGCGAGCAAUAUUACGUCUU | -0.851 ± 0.047 | -0.197 ± 0.06
GGCGAGCAAUAUUACGUGUA | -2.41 ± 0.15 | -1.16 ± 0.14
GGCUAGCAAUAUUACGAAGA | -2.05 ± 0.43 | -0.778 ± 0.36
GGCUAGCAAUAUUACGACAG | -2.88 ± 0.35 | -1.85 ± 0.34
GGCUAGCAAUAUUACGACAU | -0.413 ± 0.013 | 0.0789 ± 0.033
GGCUAGCAAUAUUACGAUAU | -1.79 ± 0.17 | -1.84 ± 0.16
GGCUAGCAAUAUUACGAUCC | 0.227 ± 0.47 | –
GGCUAGCAAUAUUACGAUGG | – | -2.46 ± 0.23
GGCUAGCAAUAUUACGCACG | -0.276 ± 0.093 | -0.119 ± 0.1
GGCUAGCAAUAUUACGCCCU | – | 0.0828 ± 0.36
GGCUAGCAAUAUUACGCCUA | -0.205 ± 0.23 | -1.69 ± 0.3
GGCUAGCAAUAUUACGCCUU | – | -0.73 ± 0.19
GGCUAGCAAUAUUACGCGGA | -0.936 ± 0.22 | -0.393 ± 0.22
GGCUAGCAAUAUUACGCGUG | -0.672 ± 0.071 | -1.13 ± 0.083
GGCUAGCAAUAUUACGCUUC | -2.51 ± 0.21 | -1.61 ± 0.26
GGCUAGCAAUAUUACGCUUG | -3.03 ± 0.19 | -2.19 ± 0.19

Sequence | self-splicing fitness (ln) (30 °C) | self-splicing fitness (ln) (37 °C)
GGCUAGCAAUAUUACGGACA | -0.485 ± 0.091 | -0.398 ± 0.098
GGCUAGCAAUAUUACGGCUG | 0.0242 ± 0.097 | -0.992 ± 0.12
GGCUAGCAAUAUUACGUACU | -0.354 ± 0.077 | 0.312 ± 0.11
GGCUAGCAAUAUUACGUAUC | -0.368 ± 0.098 | -0.254 ± 0.12
GGCUAGCAAUAUUACGUCAG | -2.81 ± 0.45 | –
GGCUAGCAAUAUUACGUCUU | -0.274 ± 0.075 | 0.396 ± 0.088
GGCUAGCAAUAUUACGUGAG | -1.21 ± 0.087 | -0.194 ± 0.092
GGCUAGCAAUAUUACGUGGA | -1.81 ± 0.14 | -0.667 ± 0.12
GGCUAGCAAUAUUACGUGUA | -0.9 ± 0.093 | -0.236 ± 0.095
GGCUAGCAAUAUUACGUUCU | -0.249 ± 0.082 | -0.358 ± 0.1
GGGAAGCAAUAUUACGAAGC | -2.84 ± 0.23 | -1.75 ± 0.34
GGGAAGCAAUAUUACGAAUC | -0.774 ± 0.11 | -0.499 ± 0.14
GGGAAGCAAUAUUACGACAU | -0.662 ± 0.015 | -0.341 ± 0.034
GGGAAGCAAUAUUACGACGA | -0.787 ± 0.093 | 0.0557 ± 0.11
GGGAAGCAAUAUUACGAGGG | -4.09 ± 0.24 | -2.67 ± 0.19
GGGAAGCAAUAUUACGCAUU | -2.94 ± 0.34 | -1.53 ± 0.44
GGGAAGCAAUAUUACGCCCG | – | 0.0331 ± 0.36
GGGAAGCAAUAUUACGCGUU | -2.67 ± 0.24 | -1.49 ± 0.2
GGGAAGCAAUAUUACGGCAG | -2.64 ± 0.34 | –
GGGAAGCAAUAUUACGGCGA | -0.443 ± 0.12 | 0.0664 ± 0.12
GGGAAGCAAUAUUACGGCGC | -2.22 ± 0.1 | -1.1 ± 0.053
GGGAAGCAAUAUUACGGCGU | -0.0838 ± 0.13 | -0.241 ± 0.14
GGGAAGCAAUAUUACGGUAA | -3.01 ± 0.41 | -0.554 ± 0.17
GGGAAGCAAUAUUACGGUCA | -0.346 ± 0.1 | -0.237 ± 0.11
GGGAAGCAAUAUUACGUGAA | -2.39 ± 0.18 | -0.692 ± 0.17

Sequence | self-splicing fitness (ln) (30 °C) | self-splicing fitness (ln) (37 °C)
GGGAAGCAAUAUUACGUGCA | -1.36 ± 0.1 | 0.0267 ± 0.12
GGGAAGCAAUAUUACGUGGG | -3.64 ± 0.29 | -2.46 ± 0.24
GGGAAGCAAUAUUACGUGUC | -3.63 ± 0.24 | -2.28 ± 0.2
GGGAAGCAAUAUUACGUUAG | -2.72 ± 0.27 | -0.794 ± 0.24
GGGAAGCAAUAUUACGUUCU | -3.66 ± 0.22 | -3.52 ± 0.25
GGGAAGCAAUAUUACGUUGG | -3.77 ± 0.3 | -1.1 ± 0.24
GGGAAGCAAUAUUACGUUUG | -2.72 ± 0.22 | -1.74 ± 0.21
GGGCAGCAAUAUUACGAAAG | -3.58 ± 0.28 | -2.92 ± 0.35
GGGCAGCAAUAUUACGACAU | -0.411 ± 0.013 | 0.0276 ± 0.033
GGGCAGCAAUAUUACGACUC | 0.392 ± 0.12 | 0.247 ± 0.17
GGGCAGCAAUAUUACGAGGU | -4.65 ± 0.38 | -2.77 ± 0.24
GGGCAGCAAUAUUACGAGUU | -2.81 ± 0.2 | -1.27 ± 0.22
GGGCAGCAAUAUUACGAUGC | -1.98 ± 0.2 | -1.11 ± 0.24
GGGCAGCAAUAUUACGCAAU | -0.2 ± 0.071 | -0.127 ± 0.085
GGGCAGCAAUAUUACGCACU | -1.6 ± 0.32 | -1.42 ± 0.24
GGGCAGCAAUAUUACGCAGG | -2.6 ± 0.18 | -1.03 ± 0.19
GGGCAGCAAUAUUACGCAGU | -0.715 ± 0.14 | -0.784 ± 0.18
GGGCAGCAAUAUUACGCCUA | -0.197 ± 0.12 | 0.428 ± 0.14
GGGCAGCAAUAUUACGCGGA | -1.23 ± 0.15 | -0.758 ± 0.1
GGGCAGCAAUAUUACGCGUA | -0.501 ± 0.077 | -0.0324 ± 0.077
GGGCAGCAAUAUUACGCUUA | 0.359 ± 0.12 | 0.25 ± 0.15
GGGCAGCAAUAUUACGGAGG | -4.42 ± 0.26 | -3.03 ± 0.23
GGGCAGCAAUAUUACGGAUC | -0.301 ± 0.057 | 0.486 ± 0.076
